From paper PMC4294129 (Drug Design, Development and Therapy, 2015)

Legend:
[1] = system: human platelets; test: Collagen I-induced platelet aggregation in platelet rich plasma; format: cell-based; conditions: 10 μM, 2 μg/mL collagen I, saline 85%±19%, mean ± SD, four donors
[2] = biological target: GST-tagged α2A domain (UniProt P17301); test: ELISA
Chain of UniProt P17301 (P17301 30-1181): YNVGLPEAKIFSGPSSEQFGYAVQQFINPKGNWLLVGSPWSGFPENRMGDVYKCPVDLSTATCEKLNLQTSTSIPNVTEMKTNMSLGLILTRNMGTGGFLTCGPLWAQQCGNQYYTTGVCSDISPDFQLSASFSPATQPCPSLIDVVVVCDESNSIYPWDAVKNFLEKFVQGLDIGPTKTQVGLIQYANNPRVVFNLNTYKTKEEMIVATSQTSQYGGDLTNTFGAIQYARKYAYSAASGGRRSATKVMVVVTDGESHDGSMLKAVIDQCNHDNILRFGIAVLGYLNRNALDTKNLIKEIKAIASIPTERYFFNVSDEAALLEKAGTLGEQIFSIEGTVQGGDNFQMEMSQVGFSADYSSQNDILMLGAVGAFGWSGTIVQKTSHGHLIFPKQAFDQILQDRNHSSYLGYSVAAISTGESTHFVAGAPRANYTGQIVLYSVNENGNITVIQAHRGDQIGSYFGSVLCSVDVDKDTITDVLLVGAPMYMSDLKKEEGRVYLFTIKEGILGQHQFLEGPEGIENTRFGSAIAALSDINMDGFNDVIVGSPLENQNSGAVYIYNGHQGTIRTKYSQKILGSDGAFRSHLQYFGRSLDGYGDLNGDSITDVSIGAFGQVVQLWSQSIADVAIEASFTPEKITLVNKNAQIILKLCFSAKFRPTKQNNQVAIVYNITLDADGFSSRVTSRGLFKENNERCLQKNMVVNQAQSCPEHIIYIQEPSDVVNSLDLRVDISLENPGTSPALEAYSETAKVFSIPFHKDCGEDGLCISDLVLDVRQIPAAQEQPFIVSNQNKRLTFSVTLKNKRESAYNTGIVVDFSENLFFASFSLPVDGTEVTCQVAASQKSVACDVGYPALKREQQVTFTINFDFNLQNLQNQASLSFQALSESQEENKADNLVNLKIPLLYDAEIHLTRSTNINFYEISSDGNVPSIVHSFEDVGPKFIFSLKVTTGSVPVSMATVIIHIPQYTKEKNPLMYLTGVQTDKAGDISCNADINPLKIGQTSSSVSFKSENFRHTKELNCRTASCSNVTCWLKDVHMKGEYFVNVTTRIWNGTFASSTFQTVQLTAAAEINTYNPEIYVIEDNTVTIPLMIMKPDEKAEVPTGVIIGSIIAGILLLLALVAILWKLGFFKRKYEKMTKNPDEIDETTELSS

| percent inhibition of GST-α2A binding to collagen I [2] | Compound | platelet aggregation, collagen-induced, in PRP [1] |
| --- | --- | --- |
|  | CC(=O)Oc1cc2c(s1)CCN(C(C(=O)C1CC1)c1ccccc1F)C2 (stereo not drawn) [prasugrel] | 34%±18% |
| 30% | Vipegitide-PEG2 (peptide) |  |
| 30% | Vipegitide (peptide) |  |
